Experimental data reported in patent publication US6066485A, “Growth factor inducible serine/threonine phosphatase fin13” (New York University, priority 1997, dated 2000).

Columns and labels:
[1] = system: HeLa cells; experiment: BrdU incorporation in transiently transfected HeLa cells; assay type: cell-based, human; conditions: summary of Table 1
Protocol: Bromodeoxyuridine (BrdU) incorporation. The effect of FIN13 expression on BrdU incorporation was determined in HeLa cells growing asynchronously in DMEM/10% calf serum. Cells were plated at 10000 cells/ml on coverslips and after 24 h were transfected with 10 μg of either pRKERK2-HA, CMVβ or pRKFIN13. Twenty four hours after transfection the medium was changed and the cells were incubated with BrdU labelling reagent (10 μl) for a further 12 h according to the suppliers instructions (Boehringer Mannheim). Following labelling, coverslips were rinsed in PBS and cells were fixed in 70% ethanol-50 mM glycine (pH 2.0) overnight at -20° C. Incorporated BrdU was detected with FITC-conjugated anti-BrdU (Boehringer Mannheim) by immunocytochemistry (see below).
Immunocytocliemistry. Fixed cells on coverslips were washed twice in PBS and twice in PBS/0.02% BSA followed by incubation with the primary antibody diluted in PBS/0.02% BSA for 1 hour at 37° C. (anti-FIN13 polyclonal serum at 1:200, anti-HA monoclonal antibody 12CA5 acities at 1:200 or anti-β-galactosidase GAL40 monoclonal antibody at 1:500). After washing, coverslips were incubated in secondary antibody as above (anti-rabbit Texas red at 1:200, anti-mouse Texas red at 1:200)(Molecular Probes). The coverslips were washed again and then incubated in […] (1:500) FITC-conjugated anti-BrdU (Boehringer Mannheim) as above. Where noted, cells were also stained with 1 μg/ml bis-benzimide (Hoechst #33342) in PBS. Coverslips were mounted and examined using a fluorescence microscope.
Cells Transiently Transfected with FIN13 are Blocked in the Cell Cycle. We have utilized a transient transfection approach to examine the effect of FIN13 expression on DNA synthesis and cell cycle progression. […] ERK2 is expressed as a nuclear protein in HeLa cells in the presence of 10% serum (Chen et al., Mol. Cell. Biol. 12:915-927 (1992)) while β-galactosidase is predominantly cytoplasmic. […] BrdU incorporation was detected using FITC-conjugated anti-BrdU antibodies.

[2] = target: T1, his-FIN13 (Mus musculus, UniProt Q61074); experiment: Phosphatase assay of bacterially expressed his-FIN13 with 32P-labelled casein; assay type: biochemical; conditions: for effect on his-FIN13 phosphatase activity: 20 μg/ml, 20 mg/ml in FIG. 5 legend
T1 construct: Purified his-tagged full length FIN13 (his-FIN13); made in house; host or cells: E. coli BL21(DE3)
T1 sequence (Q61074 151-542 limits assumed): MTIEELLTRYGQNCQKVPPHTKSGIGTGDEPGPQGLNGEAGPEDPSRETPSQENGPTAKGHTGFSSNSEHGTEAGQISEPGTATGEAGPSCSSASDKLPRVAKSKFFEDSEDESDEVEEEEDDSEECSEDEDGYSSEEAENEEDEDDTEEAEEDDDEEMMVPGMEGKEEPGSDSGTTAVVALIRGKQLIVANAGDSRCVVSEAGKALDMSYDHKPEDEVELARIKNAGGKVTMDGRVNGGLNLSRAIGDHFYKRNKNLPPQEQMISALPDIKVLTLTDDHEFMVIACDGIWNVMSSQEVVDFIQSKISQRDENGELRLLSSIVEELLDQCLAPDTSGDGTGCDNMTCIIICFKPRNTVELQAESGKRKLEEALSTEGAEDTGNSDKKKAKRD
Protocol: FIG. 5. Phosphatase activity of bacterially expressed FIN13. Purified his-tagged full length FIN13 (his-FIN13) or his-tagged catalytic domain FIN13 (his-FIN13-cat) were examined for their ability to dephosphorylate ^32 P-labelled cascin in vitro as described in the Materials and Methods. Phosphatase assays were performed in the absence of his-FIN13 (No FIN13; open bar) or with his-FIN13 incubated in the presence of 10 mM of the indicated divalent cation (MgCl2, ZnCl2, CaCl2 or MnCl2)(solid bars) or in the presence of the indicated mM concentrations of MnCl2 (half-tone bars). +EDTA: indicates his-FIN13 incubated in the presence of 10 mM EDTA and 10 mM MnCl2. his-FIN13-cat was incubated in the presence of the indicated mM concentrations of MnCl2 (cross-hatched bars). his-FIN13 was also incubated in the presence of 1 μM okadaic acid (OA), 20 mg/ml poly L-lysine (PL-L), 20 mg/ml protamine sulfate (PS). All incubations were performed for 1 h at 30° C.
Preparation of ^32 P-labelled casein. Casein (10 mg)(Sigma) was labelled with ^32 P using 10U of the catalytic subunit of cAMP dependent protein kinase (Sigma) in 50 mM Tris-HCl pH 7.0, 0.1 mM EGTA, 10 mM Mg-acetate, 0.1% β-mercaptoethanol, and 0.5 mCi of ^32 PγATP for 12 h at 30° C. The reaction mixture was then precipitated at 4° C. in 20% TCA. Labelled casein was recovered by centrifugation, the pellet washed 5 times in 100% acetone and resuspended in 50 mM Tris-HCl, 0.1 mM EGTA.
Phosphatase assay. The phosphatase activity of purified FIN13 expressed in bacteria as a fusion protein with N- and C-terminal his-tags was assessed in vitro using ^32 P-labelled casein as a substrate. For preparation of his-FIN13 and his-FIN13-cat from bacteria, the BL21(DE3) strain transformed with pEThis-FIN13 or pEThis-FIN13-cat were induced with 0.2 mM IPTG for 2 h following which the cells were recovered by centrifugation, resuspended in column buffer (50 mM sodium phosphate, pH 8.0, 300 mM NaCl, 1 mM PMSF) and frozen overnight at -70° C. The bacteria were then lysed by sonication at 4° C. and the extract cleared by centrifugation. The supernatant was then adsorbed to Ni-NTA-agarose (Qiagen) at 4° C. for 1 h. The resin was then washed extensively in column buffer without PMSF and his-FIN13 or his-FIN13-cat were eluted using 25 mM Tris-HCl pH 7.2, 100 mM NaCl containing […] imidazole (Sigma). In addition, the phosphatase activity of FIN13 expressed in HeLa cells was also determined in an immune complex using ^32 P-labelled casein as a substrate. For preparation of immune complexes of myc-FIN13, HeLa cells were transfected with […] of pRKmyc-FIN13 or pRK5. Cells were lysed 24 h after transfection in lysis buffer (10 mM Na-phosphate pH 7.4, 100 mM NaCl, 1% TRITON X-100, 10 mM EDTA) also containing a protease/phosphatase inhibitor cocktail (1 mM PMSF, 1 μg/ml pepstatin, 1 μg/ml leupeptin, 1 μg/ml aprotinin, 10 mM Na-orthovanadate, 80 mM NaF, 80 mM β-glycerolphosphate, 10 μM okadaic acid). Cleared lysates (100 μg total protein) were immunoprecipitated with anti-myc monoclonal antibody (9E10) adsorbed to 30 μl protein G sepharose (Zymed) or anti-FIN13 antiserum adsorbed to 30 μl protein A sepharose (Zymed) for 1.5 h at 4° C. The anti-FIN13 polyclonal antiserum (630) was generated against the full length his-FIN13 expressed and purified from bacteria. The IPs were then washed 5 times with lysis buffer, once with 10 mM Tris-HCl pH 7.0, 100 mM NaCl and 5 mM MnCl2, and twice with phosphatase reaction buffer (10 mM Tris-HCl pH 7.0, 0.1 mM EGTA, 10 mM DTT and 10 mM MnCl2) containing 1 μM okadaic acid. Purified his-FIN13, his-FIN13-cat or myc-lPs were then examined for phosphatase activity by incubating the indicated FIN13 preparation in the presence of phosphatase reaction buffer containing ^32 P-labelled casein (1×10^5 cpm; approx. 1 μl) at 30° C. for up to 2 h.

Molecule: ERK2-HA: control nuclear protein ERK2 expressed in HeLa cells
- cells expressing the protein observed to incorporate BrdU [1]: greater than 70%

Molecule: poly L-lysine
- effect on his-FIN13 phosphatase activity [2]: Neither poly L-lysine nor protamine sulfate significantly altered

Molecule: protamine sulfate
- effect on his-FIN13 phosphatase activity [2]: Neither poly L-lysine nor protamine sulfate significantly altered

Molecule: β-galactosidase: control protein, predominantly cytoplasmic
- cells expressing the protein observed to incorporate BrdU [1]: greater than 70%

B1: his-FIN13-cat: catalytic domain of FIN13 (amino acids 195 to 392) with N- and C-terminal poly(6)-histidine tags (protein)
chain: DSRCVVSEAGKALDMSYDHKPEDEVELARIKNAGGKVTMDGRVNGGLNLSRAIGDHFYKRNKNLPPQEQMISALPDIKVLTLTDDHEFMVIACDGIWNVMSSQEVVDFIQSKISQRDENGELRLLSSIVEELLDQCLAPDTSGDGTGCDNMTCIIICFKPRNTVELQAESGKRKLEEALSTEGAEDTGNSDKKKAKRD
- phosphatase activity of catalytic domain ([2]; 10 mM MnCl2): poor phosphatase activity
- phosphatase activity of catalytic domain ([2]; 400 mM MnCl2): detectable

B2: his-FIN13: purified full length FIN13 expressed in bacteria as fusion protein with N- and C-terminal his-tags (protein)
chain: MTIEELLTRYGQNCQKVPPHTKSGIGTGDEPGPQGLNGEAGPEDPSRETPSQENGPTAKGHTGFSSNSEHGTEAGQISEPGTATGEAGPSCSSASDKLPRVAKSKFFEDSEDESDEVEEEEDDSEECSEDEDGYSSEEAENEEDEDDTEEAEEDDDEEMMVPGMEGKEEPGSDSGTTAVVALIRGKQLIVANAGDSRCVVSEAGKALDMSYDHKPEDEVELARIKNAGGKVTMDGRVNGGLNLSRAIGDHFYKRNKNLPPQEQMISALPDIKVLTLTDDHEFMVIACDGIWNVMSSQEVVDFIQSKISQRDENGELRLLSSIVEELLDQCLAPDTSGDGTGCDNMTCIIICFKPRNTVELQAESGKRKLEEALSTEGAEDTGNSDKKKAKRD
- MnCl2 concentration giving maximal phosphatase activity ([2]; 32P-labelled casein substrate): 10 mM
- phosphatase activity with other divalent cations ([2]; in the presence of MgCl2, ZnCl2 or CaCl2 (10 mM)): No activity
- dephosphorylation of 32P-labelled casein ([2]; in the presence of Mn2+ ions, 30° C.): able to dephosphorylate

B3: FIN13: novel FGF-inducible type 2C serine/threonine phosphatase (protein)
chain: MTIEELLTRYGQNCQKVPPHTKSGIGTGDEPGPQGLNGEAGPEDPSRETPSQENGPTAKGHTGFSSNSEHGTEAGQISEPGTATGEAGPSCSSASDKLPRVAKSKFFEDSEDESDEVEEEEDDSEECSEDEDGYSSEEAENEEDEDDTEEAEEDDDEEMMVPGMEGKEEPGSDSGTTAVVALIRGKQLIVANAGDSRCVVSEAGKALDMSYDHKPEDEVELARIKNAGGKVTMDGRVNGGLNLSRAIGDHFYKRNKNLPPQEQMISALPDIKVLTLTDDHEFMVIACDGIWNVMSSQEVVDFIQSKISQRDENGELRLLSSIVEELLDQCLAPDTSGDGTGCDNMTCIIICFKPRNTVELQAESGKRKLEEALSTEGAEDTGNSDKKKAKRD
- cells expressing the protein observed to incorporate BrdU [1]: 10-17%
